Measured values: PMC5500810 (2017)

Tests used:
[1] = target: T1, mouse EphA4-Fc (R&D Systems) (mouse, UniProt Q03137 20-547); experiment: SPR
[2] = target: T1, mouse EphA4-Fc (R&D Systems); experiment: SPR; remark: listed apart in the source
[3] = target: T2, human EphA4-Fc (R&D Systems) (human, UniProt P54764 20-547); experiment: SPR
[4] = target: T3, EphA4 ligand-binding domain (human, amino acids 22-203) (human, UniProt P54764 22-203, biotin on primary amines (EZ link NHS biotin) in the AlphaScreen assays only); experiment: SPR
T3 sequence (P54764 22-203): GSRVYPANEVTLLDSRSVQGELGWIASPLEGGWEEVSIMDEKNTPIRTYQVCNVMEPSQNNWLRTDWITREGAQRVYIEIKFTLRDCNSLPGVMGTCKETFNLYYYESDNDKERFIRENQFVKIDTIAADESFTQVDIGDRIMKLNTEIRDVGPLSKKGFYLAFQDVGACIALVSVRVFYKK

[5] = target: T2, human EphA4-Fc (R&D Systems); experiment: SPR; kd2
[6] = target: T3, EphA4 ligand-binding domain (human, …); experiment: SPR; kd2
[7] = target: T2, human EphA4-Fc (R&D Systems); experiment: SPR; kd1
[8] = target: T3, EphA4 ligand-binding domain (human, …); experiment: SPR; kd1
[9] = target: T1, mouse EphA4-Fc (R&D Systems); experiment: SPR; kd2
[10] = target: T1, mouse EphA4-Fc (R&D Systems); experiment: SPR; kd1
[11] = target: T2, human EphA4-Fc (R&D Systems); experiment: SPR; remark: listed apart in the source

T2 sequence (P54764 20-547): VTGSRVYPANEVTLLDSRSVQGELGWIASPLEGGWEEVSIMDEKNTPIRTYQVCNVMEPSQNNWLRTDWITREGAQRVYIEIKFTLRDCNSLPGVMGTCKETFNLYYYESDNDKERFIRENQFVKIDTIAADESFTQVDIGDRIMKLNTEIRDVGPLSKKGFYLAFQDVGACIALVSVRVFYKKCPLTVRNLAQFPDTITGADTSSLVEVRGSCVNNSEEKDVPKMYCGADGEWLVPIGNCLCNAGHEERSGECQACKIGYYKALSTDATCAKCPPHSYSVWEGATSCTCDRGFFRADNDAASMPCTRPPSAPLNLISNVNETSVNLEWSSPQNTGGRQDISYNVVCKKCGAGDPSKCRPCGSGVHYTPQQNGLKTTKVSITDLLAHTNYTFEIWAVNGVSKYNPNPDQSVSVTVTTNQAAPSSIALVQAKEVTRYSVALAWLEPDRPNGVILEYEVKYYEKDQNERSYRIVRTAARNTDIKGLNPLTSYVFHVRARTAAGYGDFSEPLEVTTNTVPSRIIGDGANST
T1 sequence (Q03137 20-547): as the sequence (P54764 20-547) above, with P59A, N121S, V124G, R250Q, S251N, T270S, K378R, N406S counted along it

koff [1] | Kd [2] | Kd [3] | Kd [4] | koff [5] | koff [6] | koff [7] | koff [8] | koff [9] | koff [10] | koff [11] | Binder
0.114 s⁻¹ | 104 nM | 64.2 nM | 87.3 nM | 0.0022 s⁻¹ | 0.00062 s⁻¹ | 0.168 s⁻¹ | 0.192 s⁻¹ |  |  |  | Nb 50 (VHH, biotin on primary amines (EZ link NHS biotin) in the Eph receptor selectivity AlphaScreen only) VHH: QVQLQESGGGLVQAGGSLRLSCAASGRTFNSYAEAWFRQAPGKEREMIAAVTKAGTTNYANPVKGRFTISRDDAKNMVYLQMNNLKPEDSAVYYCNAISPLWDEYDFWGPGTQVTVSS
 | 258 nM | 175 nM | 293 nM | 0.0105 s⁻¹ | 0.00676 s⁻¹ | 0.2 s⁻¹ | 0.155 s⁻¹ | 0.0115 s⁻¹ | 0.151 s⁻¹ |  | Nb 31 (VHH, biotin on primary amines (EZ link NHS biotin) in the Eph receptor selectivity AlphaScreen only) VHH: QVQLQESGGGLVQAGGSLRLSCAASGFASDAYAIGWFRQAPGTKREMIAAVTKAGATNYANPVKGRFTISRDDAKNMVYLQMNNLKPEDSAVYYCNAISPLWDEYDFWGPGTQVTVSS
0.0244 s⁻¹ | 22.8 nM | 22.6 nM | 45.7 nM |  | 0.00213 s⁻¹ |  | 0.0594 s⁻¹ |  |  | 0.0156 s⁻¹ | Nb 53 (VHH, biotin on primary amines (EZ link NHS biotin) in the Eph receptor selectivity AlphaScreen only) VHH: QVQLQESGGGVVQAGGSLRLSCAASGRAFSSYAMGWFRQAPGTKREMIAAVTRAGTTNYANPVKGRFTISRDDAKNMVYLQMNNLKPEDSAVYYCNAISPLWDEYDFWGPGTQVTVSS
0.023 s⁻¹ | 104 nM | 47.1 nM | 54.1 nM |  | 0.00255 s⁻¹ |  | 0.0143 s⁻¹ |  |  | 0.0148 s⁻¹ | Nb 22 (VHH, biotin on primary amines (EZ link NHS biotin) in the Eph receptor selectivity AlphaScreen only) VHH: QVQLQESGGGPVRAGESLRLSCTASGRAFSTYTMGWFRQAPGKERELVAVITPGGNTNYADSVKGRFTISRDDAKNTVYLQMNSLKPVDTAVYYCHVVLAVVGTGNEYDVWGQGTQVTVSS
0.288 s⁻¹ | 37.8 nM | 38.3 nM | 57.5 nM |  | 0.00133 s⁻¹ |  | 0.257 s⁻¹ |  |  | 0.229 s⁻¹ | Nb 57 (VHH, biotin on primary amines (EZ link NHS biotin) in the Eph receptor selectivity AlphaScreen only) VHH: QVQLQESGGGLVQPGGSLRLSCAASGFTFSSYYMYWVRQAPGKGLEWVSTINTGGGSTNYADSVKGRFIISRDNAKNTVYLQMNSLKPEDTAVYYCNAFAAGWGPDYWGQGTQVTVSS
0.135 s⁻¹ | 1140 nM | 852 nM | 507 nM |  | 0.0289 s⁻¹ |  | 0.108 s⁻¹ |  |  | 0.091 s⁻¹ | Nb 19 (VHH) VHH: QVQLQESGGGLVQPGGSLRLSCAATGRNFNAYSIAWFRQAPGKEREFVASINWSGSNTYYAVAVKGRFTTSRDNAKNTVYLQMNSLKPEDTAVYYCNAFAAGWGPDYWGQGTQVTVSS
 | 26900 nM | 18000 nM |  | 0.0121 s⁻¹ |  | 0.168 s⁻¹ |  | 0.0226 s⁻¹ | 0.345 s⁻¹ |  | Nb 34 (VHH) VHH: QVQLQESGGGLVQAGGSLRLSCAASGFTFSSYAMSWVRQAPGKGLEWVSGINTGGGSTYYADSVKGRFTISRDNAKNTLYLQMNSLKSEDTAVYYCVPRVGVLEGLTSFGSWGQGTQVTVSS
0.0158 s⁻¹ | 23.6 nM | 30.1 nM | 56.6 nM |  | 0.00186 s⁻¹ |  | 0.0607 s⁻¹ |  |  | 0.0291 s⁻¹ | Nb 39 (VHH, biotin on primary amines (EZ link NHS biotin) in the Eph receptor selectivity AlphaScreen only) VHH: QVQLQESGGGLVQPGGSLKLSCAASGFTFSTYAMSWVRQAPGKGLEWVSRINSGGGYTWHADSVKGRFTISRDNARNTVYLQMNNLKPEDTAVYYCTNLNTGWRPEYWGQGTQVTVSS
 | 27.4 nM | 39.6 nM | 37 nM |  | 0.00018 s⁻¹ |  | 0.115 s⁻¹ |  |  | 0.0488 s⁻¹ | Nb 60 (VHH, biotin on primary amines (EZ link NHS biotin) in the Eph receptor selectivity AlphaScreen only) VHH: QVQLQESGGGLVQPGGSLRLSCAASGFTFSRYWIYWVRQAPGKQRELVAAITRNGVTNYADSVKGRFTISTDDNKNTVYLQMNSLKSEDTAVYYCNAWGFLLGDIEDYWGQGTQVTVSS
